Data as given in paper PMC11886824 (Nucleic Acids Research, 2025).
Changes are numbered by the printed parent chain. Read-outs that look alike come from different tables or passages of the source.

How the values were obtained:
[1] = target: the molecule itself; assay: cryo-EM structure
[2] = target: T1, P12 WT (Enterobacteria phage PRD1, UniProt P17637 1-160); assay: EMSA
T1 sequence: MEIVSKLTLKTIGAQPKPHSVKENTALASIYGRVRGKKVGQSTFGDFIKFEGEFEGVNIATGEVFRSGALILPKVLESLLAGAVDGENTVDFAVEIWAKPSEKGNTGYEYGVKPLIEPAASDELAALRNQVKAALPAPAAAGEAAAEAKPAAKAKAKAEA

[3] = target: T1, P12 WT; assay: EMSA; remark: listed apart in the source
[4] = target: T1, P12 WT; assay: EMSA; remark: listed apart in the source
[5] = target: T2, P12 F44A+K10A (M2) (Enterobacteria phage PRD1, UniProt P17637 1-160, K10A;F44A); assay: EMSA
T2 sequence: T1 sequence with K10A, F44A

[6] = target: T3, P12(1-122) (T3) (Enterobacteria phage PRD1, UniProt P17637 1-122, del123-160); assay: EMSA
T3 sequence: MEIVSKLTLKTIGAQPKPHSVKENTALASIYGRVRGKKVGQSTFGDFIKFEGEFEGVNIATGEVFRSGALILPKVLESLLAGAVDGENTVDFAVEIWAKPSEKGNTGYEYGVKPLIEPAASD

B1: P12, single-stranded DNA-binding protein from bacteriophage PRD1 (natural protein, UniProt P17637 1-160, looked up)
chain: T1 sequence
binding result [1]: binds

GAAAAUAAAAAUAAACUGGACAAUUAAGGAUCCUGUACAAGUCGACGCGG (ssRNA) [ssRNA (non-repetitive)50]
binding result [2]: no binding

AGAGACAACTGGCCGTCGTTCTATTGTACTCACTGTGATC (ssDNA) [ssDNA (non-repetitive)40]
binding result [3]: binds

B2: ssDNA (non-repetitive)80 (ssDNA)
DNA: AGAGACAACTGGCCGTCGTTCTATTGTACTCACTGTGATCAGAGACAACTGGCCGTCGTTCTATTGTACTCACTGTGATC
Kd [4]: 350 nM | binding result [5]: no binding | binding result [6]: no binding

GATCACAGTGAGTACAATAGAACGACGGCCAGTTGTCTCAATCTAACGGC (ssDNA) [ssDNA (non-repetitive)50]
binding result [2]: binds
